Test [1] has as its target bovine α-chymotrypsin (bovine).
The target of test [2] is bovine α-chymotrypsin (bovine). Kind of test: progress curve of protease inhibition; 40 °C; buffer B (100 mM HEPES-NaOH pH 7.5, 200 mM NaCl, 10 mM CaCl2, 0.01% triton X-100, 0.1% glycerol); 1 mM Suc-AAPF-pNA or MeO-SucAAPV-pNA as substrate; various concentrations of Pnserpin; absorption at 410 nm; kass = kunc × (1 + [S]/KM).

On to “Pnserpin (from UniProt B1YBN4 1-393) (natural protein)”, for which, in test [1], the stoichiometry of inhibition (SI), incubation at 20 °C; residual protease activity amounted to 9.49; the stoichiometry of inhibition (SI), incubation at 30 °C; residual protease activity came to 5.8; the stoichiometry of inhibition (SI), incubation at 40 °C; residual protease activity is 4.76; the stoichiometry of inhibition (SI), incubation at 50 °C; residual protease activity came out at 2.21. The kon (as a rule, the second-order rate constant of association) in test [2] amounted to 24600 M⁻¹ s⁻¹.

(Values after paper PMC5297747.)
